Measurements as given in article PMC10657439 (Cell Death and Differentiation, 2023).
Positions count from the first letter of the chain named. Names may count otherwise. One block for each molecule: values may come before it.

Columns and labels:
[1] = molecular target: His-Fas^R87A (human); experiment: ELISA
[2] = molecular target: Fas R86A mutant tested for E09 binding (human) (UniProt P25445); experiment: ELISA
[3] = molecular target: His-Fas (His-tagged human Fas extracellular domain, wild type) (human); experiment: ELISA
[4] = molecular target: Fas (CD95), endogenous on human cells (human (endogenous in OVCAR3, Jurkat, PBMC-derived T cells)) (UniProt P25445)
[5] = molecular target: T1, His-Fas (His-tagged human Fas extracellular domain, wild type) (human); experiment: BLI
T1 chain: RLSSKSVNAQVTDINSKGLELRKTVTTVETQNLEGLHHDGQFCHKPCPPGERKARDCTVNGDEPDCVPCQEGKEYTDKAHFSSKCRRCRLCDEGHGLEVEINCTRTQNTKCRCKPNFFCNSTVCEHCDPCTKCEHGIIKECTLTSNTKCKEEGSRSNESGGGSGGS

[6] = molecular target: T2, Fc-tagged Fas (recombinant extracellular domain of Fas with a C-terminal Fc) (human, UniProt P25445 26-173); experiment: ELISA; Fc-tagged Fas (2 μg/ml) coated on 96-well plates; His-tagged FasL (single or tandem) in 2-fold dilutions from 50 to 0.048 nM, 1 h at 37 °C; settings: both partners purified
T2 construct: human Fas (CD95) extracellular domain; also called Fas-IgG1 Fc; IgG4-Fc-tagged Fas; source: FreeStyle CHO-S cells, purified (protein A columns); not shown: Fc (IgG4 in the methods, IgG1 in the results), C-terminal, kept
T2 sequence (looked up): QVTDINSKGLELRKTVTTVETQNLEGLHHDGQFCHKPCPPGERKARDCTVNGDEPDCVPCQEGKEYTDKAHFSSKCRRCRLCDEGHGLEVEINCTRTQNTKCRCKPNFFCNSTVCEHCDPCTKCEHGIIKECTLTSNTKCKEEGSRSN

[7] = molecular target: the molecule itself; experiment: non-reducing, partially denaturing SDS-PAGE with anti-His immunoblot; purified His-tagged FasL added to Jurkat cells in culture wells, 30 min; soup and total lysates together; FasL trimer formation
[8] = molecular target: T1, His-Fas (His-tagged human Fas …); experiment: BLI

Molecule: His_FasL^TL1A (His-tagged FasL with the cognate region of TL1A, DTYGIV to HELGLA) (ligand)
- cytotoxic activity against T cells (cell survival assay, Fig. 3F, G) [4]: > 70%

B2: His_FasL^WT (N-terminal His-tagged human FasL, wild type) (ligand)
chain: GGSPSPPPEKKELRKVAHLTGKSNSRSMPLEWEDTYGIVLLSGVKYKKGGLVINETGLYFVYSKVYFRGQSCNNLPLSHKVYMRNSKYPQDLVMMEGKMMSYCTTGQMWARSSYLGAVFNLTSADHLYVNVSELSLVNFEESQTFFGLYKL
notes: linker between the His tag and FasL; also called WT FasL; His-tagged FasL; source: FreeStyle CHO-S cells, transfected, purified (Ni-Sepharose HisTrap); not shown: His7, N-terminal, kept
- binding result [6]: binds
- stoichiometry N [7]: 3

B3: His_FasL^E163A (ligand, human)
chain: B2 chain with E33A
notes: linker between the His tag and FasL; also called A163; source: FreeStyle CHO-S cells, transfected, purified (Ni-Sepharose HisTrap); not shown: His7, N-terminal, kept
- stoichiometry N [7]: 3

B6: His_FasL^E271A (ligand, human)
chain: B2 chain with E141A
notes: linker between the His tag and FasL; also called A271; source: FreeStyle CHO-S cells, transfected, purified (Ni-Sepharose HisTrap); not shown: His7, N-terminal, kept
- stoichiometry N [7]: 3

B8: His_FasL^WT-A247E (tandem: wild-type FasL unit and A247E unit) (ligand, human)
chain: GGSPSPPPEKKELRKVAHLTGKSNSRSMPLEWEDTYGIVLLSGVKYKKGGLVINETGLYFVYSKVYFRGQSCNNLPLSHKVYMRNSKYPQDLVMMEGKMMSYCTTGQMWARSSYLGAVFNLTSADHLYVNVSELSLVNFEESQTFFGLYKLGGGSGGGSGGGSPSPPPEKKELRKVAHLTGKSNSRSMPLEWEDTYGIVLLSGVKYKKGGLVINETGLYFVYSKVYFRGQSCNNLPLSHKVYMRNSKYPQDLVMMEGKMMSYCTTGQMWARSSYLGEVFNLTSADHLYVNVSELSLVNFEESQTFFGLYKL
notes: linker between the His tag and the first FasL unit; linker between the two FasL units; source: CHO expression system, purified (HisTrap Ni Sepharose); not shown: His7, N-terminal, kept
- binding result [6]: binds

More lines, now with the values ahead:

- Kd [1]: 2.2 nM
- Kd [2]: 2.02 nM
- Kd [3]: 0.983 nM
Molecule: CH11 IgG1

- Kd [5]: 0.377 nM
B1: E09 IgG1 (preclinical Fas agonist antibody) (antibody, V domains shown)
VH: QLQLQESGPGLVKPSETLSLTCTVSGASISANSYYGVWVRQSPGKGLEWVGSIAYRGNSNSGSTYYNPSLKSRATVSVDTSKNQVSLRLTSVTAADTALYYCARRQLLDDGTGYQWAAFDVWGQGTMVTVSS
VL: QSVLTQPPSVSEAPRQTVTISCSGNSFNIGRYPVNWYQQLPGKAPKLLIYYNNLRFSGVSDRFSGSKSGTSASLAIRDLLSEDEADYYCSTWDDTLKGWVFGGGTKVTVLG

- binding result [6]: binds
B4: His_FasL^E270A (ligand, human)
chain: B2 chain with E140A
notes: linker between the His tag and FasL; source: FreeStyle CHO-S cells, transfected, purified (Ni-Sepharose HisTrap); not shown: His7, N-terminal, kept

- binding result [6]: binds
B5: His_FasL^D164A (printed as His_FasL^D163A in Table 1) (ligand, human)
chain: B2 chain with D34A
notes: as for B4

- binding result [6]: binds
B7: His_FasL^R156G (ALPS mutation) (ligand, human)
chain: B2 chain with R26G
notes: as for B4

- binding result [6]: binds
B9: His_FasL^WT-G277S (tandem: wild-type FasL unit and G277S unit) (ligand, human)
chain: B8 chain with E277A, G307S
notes: as for B8

- Kd [5]: 60.6 nM
- koff [8]: 0.0049 s⁻¹
B10: DB-FasL (protein)
chain: PSPPPEKKELRKVAHLTGKSNSRSMPLEWEDTYGIVLLSGVKYKKGGLVINETGLYFVYSKVYFRGQSCNNLPLSHKVYMRNSKYPQDLVMMEGKMMSYCTTGQMWARSSYLGAVFNLTSADHLYVNVSELSLVNFEESQTFFGLYKL
modifications: Wild-type FasL ectodomain fused to the C-terminus (CH3) of the idarucizumab (anti-dabigatran) IgG1 heavy chain, one FasL per heavy chain. The IgG carrier and linker are left out because they do not bind Fas. Limits are taken from the sister constructs His-FasL WT and E09-FasL WT printed in the tables (PSPPPEKKEL...GLYKL).
